In publication PMC10619491, “SET7/9-mediated methylation affects oncogenic functions of histone demethylase JMJD2A” (JCI Insight, 2023):
Ends that are not written are not given here.

B1: unmethylated (WT) peptide spanning JMJD2A aa 490–522 (peptide, UniProt O75164 490-522, looked up)
peptide: VNPASVGGRLVFSGSKKKSSSSLGSGSSRDSIS-NH2
notes: JMJD2A/KDM4A, human, residues 490-522; also called JMJD2A aa 490–522 peptide; source: synthetic peptide (GenScript)
B2: triple methylated (on K505, K506, and K507; 3xme) peptide spanning JMJD2A aa 490–522 (peptide, UniProt O75164 490-522, looked up)
peptide: VNPASVGGRLVFSGSK(Me)K(Me)K(Me)SSSSLGSGSSRDSIS-NH2
modifications: N-terminus assumed
SMILES: CC[C@H](C)[C@H](NC(=O)[C@H](CO)NC(=O)[C@H](CC(=O)O)NC(=O)[C@H](CCCNC(=N)N)NC(=O)[C@H](CO)NC(=O)[C@H](CO)NC(=O)CNC(=O)[C@H](CO)NC(=O)CNC(=O)[C@H](CC(C)C)NC(=O)[C@H](CO)NC(=O)[C@H](CO)NC(=O)[C@H](CO)NC(=O)[C@H](CO)NC(=O)[C@H](CCCCNC)NC(=O)[C@H](CCCCNC)NC(=O)[C@H](CCCCNC)NC(=O)[C@H](CO)NC(=O)CNC(=O)[C@H](CO)NC(=O)[C@H](Cc1ccccc1)NC(=O)[C@@H](NC(=O)[C@H](CC(C)C)NC(=O)[C@H](CCCNC(=N)N)NC(=O)CNC(=O)CNC(=O)[C@@H](NC(=O)[C@H](CO)NC(=O)[C@H](C)NC(=O)[C@@H]1CCCN1C(=O)[C@H](CC(N)=O)NC(=O)[C@@H](N)C(C)C)C(C)C)C(C)C)C(=O)N[C@@H](CO)C(N)=O
notes: JMJD2A/KDM4A, human, residues 490-522; source: synthetic peptide (GenScript)

Target: T1, GST–ETV1(249–477) fusion protein (UniProt P50549 249-477)
T1 construct: ETV1, C-terminal half, residues 249-477; In the MST it was labelled through an anti-GST mouse mAb coupled to Alexa Fluor 647; also called fusion between GST and the C-terminal half of ETV1 (aa 249–477); source: E. coli, purified
T1 sequence (looked up): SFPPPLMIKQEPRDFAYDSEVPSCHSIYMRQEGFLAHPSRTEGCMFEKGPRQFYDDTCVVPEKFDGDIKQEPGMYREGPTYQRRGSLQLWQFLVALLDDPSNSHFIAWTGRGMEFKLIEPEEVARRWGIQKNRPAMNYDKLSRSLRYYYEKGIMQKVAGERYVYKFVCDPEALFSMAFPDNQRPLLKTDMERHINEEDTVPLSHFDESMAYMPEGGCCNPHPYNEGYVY
Assay: MST; Monolith NT.115; 15 serial dilutions of peptide (starting concentration 50 μM) against 300 nM GST–ETV1(249–477) with 20 nM anti-GST mouse mAb coupled to Alexa Fluor 647; PBS with 0.05% Tween-20
Details: both partners purified

Binder | Kd
B1 | 25.4 µM
B2 | 8.7 µM
